Data published in the Human Domainome abundance scans (Beltran et al. 2025).
± gives the uncertainty stated by the source.

B1: Zinc finger homeobox protein 3, residues 2643 to 2698; numbered along this chain, Q15911 (parent)
chain: RLRTTITPEQLEILYQKYLLDSNPTRKMLDHIAHEVGLKKRVVQVWFQNTRARERK

Variants of: B1
Assay: abundance fitness (aPCA) (normalised: wild type 0, dead -1); higher = more abundant; growth selection in yeast, the domain comes from the species named
Details: Homo sapiens

Abundance fitness, by site and new letter:
Q48: K 0.096 ± 0.13; L -0.268 ± 0.11; I -0.687 ± 0.32; D 0.505 ± 0.2; A 0.122 ± 0.12; N -0.21 ± 0.23; G -0.164 ± 0.075; H -0.108 ± 0.2; R -0.204 ± 0.078; F -0.802 ± 0.24; P -0.615 ± 0.15; Y -0.089 ± 0.21; T 0.028 ± 0.15; W -0.217 ± 0.091; E 0.404 ± 0.12; C -0.189 ± 0.14; V -0.147 ± 0.1
L38: V -0.163 ± 0.078; R -0.846 ± 0.086; G -0.972 ± 0.092; T -0.616 ± 0.13; K -0.712 ± 0.17; W -0.746 ± 0.11; E -0.869 ± 0.12; H -0.737 ± 0.19; N -1.02 ± 0.24; S -0.601 ± 0.099; I -0.786 ± 0.23; C -0.329 ± 0.14; Q -0.734 ± 0.16; Y -1 ± 0.41; F -0.819 ± 0.22; M -0.009 ± 0.13
G37: V -0.812 ± 0.09; H -0.404 ± 0.16; N -0.306 ± 0.13; M -0.53 ± 0.12; F -0.55 ± 0.15; Y -0.919 ± 0.16; K -0.007 ± 0.12; Q -0.147 ± 0.1; R -0.27 ± 0.071; C -0.297 ± 0.087; T -0.825 ± 0.13; I -0.891 ± 0.17; P -0.637 ± 0.13; W -0.92 ± 0.11; A -0.366 ± 0.084; D -0.384 ± 0.1
I32: N -1.25 ± 0.25; G -0.77 ± 0.094; F -0.108 ± 0.14; T -0.274 ± 0.1; P -0.915 ± 0.13; W -0.129 ± 0.11; K -0.807 ± 0.14; S -0.735 ± 0.1; M -0.466 ± 0.1; R -1.01 ± 0.11; Y -0.378 ± 0.2; L -0.123 ± 0.08; V -0.078 ± 0.084; H -0.527 ± 0.26
R51: E -0.163 ± 0.1; A 0.13 ± 0.076; H 0.164 ± 0.19; I -0.286 ± 0.16; V -0.155 ± 0.076; M 0.098 ± 0.11; S 0.024 ± 0.093; D -0.474 ± 0.14; T -0.305 ± 0.16; P -0.812 ± 0.14; K 0.112 ± 0.11; L 0.056 ± 0.1; C -0.044 ± 0.11; Q 0.229 ± 0.12
F47: A -0.904 ± 0.12; Y -0.388 ± 0.22; K -0.812 ± 0.21; I -1.01 ± 0.25; C -0.945 ± 0.17; V -0.902 ± 0.14; E -0.736 ± 0.15; Q -0.887 ± 0.16; L -0.639 ± 0.098; D -0.833 ± 0.23; P -1.04 ± 0.21; W -0.106 ± 0.095; M -0.522 ± 0.13; H -1.09 ± 0.32; S -0.946 ± 0.14; R -0.757 ± 0.095; N -0.835 ± 0.27; T -0.997 ± 0.19
E35: H -0.274 ± 0.13; G -0.487 ± 0.092; T 0.063 ± 0.092; M -0.417 ± 0.11; N -1.01 ± 0.28; Y -0.556 ± 0.14; I -0.029 ± 0.14; Q -0.016 ± 0.1; L -0.205 ± 0.079; W -0.509 ± 0.11; C -0.351 ± 0.12; A -0.127 ± 0.091; F -0.557 ± 0.15; K -0.356 ± 0.15; S -0.224 ± 0.083; V -0.255 ± 0.092
K39: C 0.184 ± 0.12; R -0.012 ± 0.074; Y -0.114 ± 0.22; V -0.01 ± 0.092; N -0.153 ± 0.14; D 0.189 ± 0.13; P 0.224 ± 0.12; T 0.373 ± 0.11; W -0.77 ± 0.11; H -0.392 ± 0.18; G 0.178 ± 0.072; M 0.13 ± 0.11; A 0.236 ± 0.087; Q 0.108 ± 0.15; L -0.324 ± 0.1; E 0.518 ± 0.13; F -0.929 ± 0.28
A33: S -0.06 ± 0.074; K -0.804 ± 0.14; M -0.832 ± 0.14; G -0.398 ± 0.086; D -0.866 ± 0.11; E -0.759 ± 0.18; T -0.43 ± 0.08; C -0.127 ± 0.1; N -0.906 ± 0.11; P -0.746 ± 0.085; Y -0.822 ± 0.11; Q -0.845 ± 0.14; V -0.492 ± 0.084; W -0.728 ± 0.18; L -0.872 ± 0.089
W46: H -0.897 ± 0.31; N -0.902 ± 0.37; M -0.956 ± 0.2; Q -0.829 ± 0.16; S -0.867 ± 0.14; T -0.865 ± 0.22; G -0.792 ± 0.1; I -1.03 ± 0.38; Y -0.261 ± 0.34; P -0.891 ± 0.17; F -0.462 ± 0.3; A -0.482 ± 0.12; R -0.678 ± 0.094; L -0.758 ± 0.12; D -0.815 ± 0.2; E -1.08 ± 0.18
K40: L 0.283 ± 0.09; T 0.355 ± 0.1; M 0.192 ± 0.12; D 0.006 ± 0.16; V 0.161 ± 0.079; W 0.212 ± 0.11; P 0.258 ± 0.1; Y 0.16 ± 0.18; I 0.093 ± 0.17; C -0.195 ± 0.14; N 0.238 ± 0.17; H -0.049 ± 0.16; A 0.144 ± 0.08; R -0.064 ± 0.082; S 0.237 ± 0.092; G 0.04 ± 0.079
V42: N -0.02 ± 0.14; T 0.037 ± 0.11; H -0.288 ± 0.17; K 0.16 ± 0.15; S -0.327 ± 0.092; I -0.073 ± 0.12; M -0.068 ± 0.11; Q -0.372 ± 0.14; C -0.021 ± 0.12; A -0.123 ± 0.095; L -0.03 ± 0.087; D 0.226 ± 0.13; R -0.44 ± 0.091; P -0.932 ± 0.16; F -0.47 ± 0.17; E 0.387 ± 0.095; Y -0.021 ± 0.15; G -0.43 ± 0.081; W -0.048 ± 0.1
T50: R -0.037 ± 0.072; Y -0.048 ± 0.15; F -0.322 ± 0.19; W -0.156 ± 0.091; M 0.092 ± 0.13; G -0.549 ± 0.073; D -0.731 ± 0.15; K -0.091 ± 0.13; H -0.11 ± 0.17; L -0.177 ± 0.09; S -0.202 ± 0.094; E 0.342 ± 0.11; I -0.247 ± 0.11; C -0.078 ± 0.11; P -0.6 ± 0.12; A 0.056 ± 0.086; N -0.572 ± 0.36; Q 0.243 ± 0.12
H34: K 0.213 ± 0.16; Y -0.012 ± 0.12; S 0.009 ± 0.089; N -0.044 ± 0.18; L -0.225 ± 0.084; F -0.114 ± 0.15; P -0.739 ± 0.12; C -0.075 ± 0.099; I -0.632 ± 0.2; D 0.035 ± 0.15; G 0.062 ± 0.093; Q -0.017 ± 0.1; M -0.092 ± 0.14; W -0.095 ± 0.1; A -0.123 ± 0.11; E 0.099 ± 0.16
V43: R -1.03 ± 0.11; D -0.867 ± 0.15; S -0.821 ± 0.11; N -0.64 ± 0.2; I -0.127 ± 0.15; H -0.973 ± 0.23; P -0.739 ± 0.14; F -0.815 ± 0.28; M -0.889 ± 0.15; G -0.937 ± 0.11; W -1.07 ± 0.18; E -1.11 ± 0.14; Q -1 ± 0.16; C -0.345 ± 0.15; Y -0.807 ± 0.22; L -0.485 ± 0.097; T -0.548 ± 0.11
V45: A -0.365 ± 0.096; G -0.213 ± 0.076; N -0.489 ± 0.17; Q -0.016 ± 0.11; Y -0.263 ± 0.14; P -0.764 ± 0.14; K -0.399 ± 0.12; C -0.329 ± 0.12; W -0.317 ± 0.11; M -0.005 ± 0.1; F -0.028 ± 0.15; H -0.001 ± 0.15; R -0.561 ± 0.084; T -0.24 ± 0.11; S -0.359 ± 0.097; I 0.158 ± 0.11; L 0.122 ± 0.084; E 0.452 ± 0.097
Q44: D 0.481 ± 0.12; G 0.023 ± 0.091; H -0.038 ± 0.15; T -0.209 ± 0.098; W -0.669 ± 0.14; E 0.283 ± 0.098; A 0 ± 0.082; L -0.347 ± 0.082; Y -0.114 ± 0.12; M -0.164 ± 0.1; K -0.236 ± 0.12; P -0.723 ± 0.12; C -0.193 ± 0.17; V -0.179 ± 0.085; R -0.331 ± 0.094; S -0.044 ± 0.097; I -0.286 ± 0.13
N49: W -0.68 ± 0.12; C -0.496 ± 0.12; P -0.778 ± 0.17; R -0.267 ± 0.082; G -0.234 ± 0.078; M -0.331 ± 0.15; H -0.412 ± 0.24; E 0.406 ± 0.11; D 0.172 ± 0.15; Q -0.168 ± 0.14; K 0.011 ± 0.12; L -0.334 ± 0.099; A -0.2 ± 0.093; T 0.04 ± 0.12; S -0.029 ± 0.089; I -0.267 ± 0.17; F -0.531 ± 0.18; V -0.229 ± 0.093
R41: W 0.055 ± 0.12; E 0.475 ± 0.12; C 0.256 ± 0.12; V 0.041 ± 0.093; Y -0.129 ± 0.24; D 0.773 ± 0.18; L -0.001 ± 0.1; A 0.159 ± 0.11; K 0.297 ± 0.18; F -0.203 ± 0.2; Q 0.287 ± 0.15; H 0.031 ± 0.19; S 0.411 ± 0.1; T 0.514 ± 0.15; G 0.353 ± 0.079; P -0.144 ± 0.23; M -0.078 ± 0.18; N 0.2 ± 0.36; I 0.544 ± 0.18
V36: E -1.11 ± 0.26; P -1 ± 0.19; H -0.964 ± 0.2; F -0.568 ± 0.15; D -0.853 ± 0.2; I 0.191 ± 0.12; T 0.053 ± 0.12; R -0.82 ± 0.11; M -0.427 ± 0.18; W -0.495 ± 0.14; Y -0.896 ± 0.19; G -0.732 ± 0.1; L -0.145 ± 0.094; N -0.761 ± 0.25; A -0.114 ± 0.09; K -0.985 ± 0.35; S -0.134 ± 0.094
